Results: article PMC11107207, “Utility of protein–protein binding surfaces composed of anti-parallel alpha-helices and beta-sheets selected by phage display” (The Journal of Biological Chemistry, 2024)

Biological target: T1, APCDD1 bait fused to the C terminus of Fc (mouse, UniProt Q3U128 27-492)
T1 construct: mouse APCDD1, entire extracellular domain, fused to the C terminus of Fc; secreted with the mouse FZD8 signal peptide; also called Fc-bait; source: HEK293T, transiently transfected, serum-free conditioned medium; captured on proteinG; not shown: Fc (human IgG1), N-terminal, kept
Experiment: SPR; Biacore, single-cycle kinetics/affinity, five-point dose response; bait-Fc on a proteinG chip; CC4-MBP in the mobile phase; done at Cayman Chemical
Conditions: both partners purified

T1 sequence (Q3U128 27-492): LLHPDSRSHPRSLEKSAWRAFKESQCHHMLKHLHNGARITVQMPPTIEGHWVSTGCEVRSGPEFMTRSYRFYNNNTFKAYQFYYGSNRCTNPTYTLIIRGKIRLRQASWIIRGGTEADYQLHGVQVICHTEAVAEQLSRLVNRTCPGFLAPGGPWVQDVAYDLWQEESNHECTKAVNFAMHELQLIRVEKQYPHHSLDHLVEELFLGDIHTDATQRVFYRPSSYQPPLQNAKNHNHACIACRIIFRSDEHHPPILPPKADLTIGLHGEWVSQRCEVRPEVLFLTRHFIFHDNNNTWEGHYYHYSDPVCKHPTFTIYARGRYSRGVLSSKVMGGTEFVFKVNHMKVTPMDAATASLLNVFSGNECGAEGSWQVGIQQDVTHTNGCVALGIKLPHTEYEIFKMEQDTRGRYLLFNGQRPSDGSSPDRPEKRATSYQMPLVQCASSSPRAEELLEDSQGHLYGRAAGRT

Kd: > 50 µM
B1: WT CC4-MBP (domain or fragment, mouse)
chain: PMRNPTDSLYCCDRAEDHACQNACKRILMSKKTEMEIVDGLIEGCKTQPLPQDPLWQCFLESSQS
notes: mouse RECK, CC domain 4 (CC4), a 4-helix bundle of 65 amino acids; also called RECK(CC4); source: E. coli SHuffle, purified (Ni-NTA)
